The record followed here is patent US20210070829A1 (ZHEJIANG DOER BIOLOGICS, published 2021).

B1: C788L1F5 (Fc fusion)
chain: HSQGTFTSDYSKQMDSQRAQDFVQWLMNTKRNRNNIAGGGGSERKCCVECPPCPAPPVAGPSVFLFPPKPKDTLMISRTPEVTCVVVDVSHEDPEVQFNWYVDGVEVHNAKTKPREEQFNSTFRVVSVLTVVHQDWLNGKEYKCKVSNKGLPSSIEKTISKTKGQPREPQVYTLPPSREEMTKNQVSLTCLVKGFYPSDIAVEWESNGQPENNYKTTPPMLDSDGSFFLYSKLTVDKSRWQQGNVFSCSVMHEALHNHYTQKSLSLSPG
B2: C627L13F10 (Fc fusion)
chain: HSQGTFTSDYSKQMDSQRAQDFVQWLMNGGPSSGAPPPSGGGGAGGGGAGGGGAAESKYGPPCPPCPAPEAAGGPSVFLFPPKPKDTLMISRTPEVTCVVVDVSQEDPEVQFNWYVDGVEVHNAKTKPREEQFASTYRVVSVLTVLHQDWLNGKEYKCKVSNKGLPSSIEKTISKAKGQPREPQVYTLPPSQEEMTKNQVSLTCLVKGFYPSDIAVEWESNGQPENNYKTTPPVLDSDGSFFLYSRLTVDKSRWQEGNVFSCSVMHEALHNHYTQKSLSLSLG
B3: C225L10F10 (Fc fusion)
chain: HSQGTFTSDYSKYLDERAAQDFVQWLMNTGPSSGAPPPSGGGGAGGGGAGGGGAESKYGPPCPPCPAPEAAGGPSVFLFPPKPKDTLMISRTPEVTCVVVDVSQEDPEVQFNWYVDGVEVHNAKTKPREEQFASTYRVVSVLTVLHQDWLNGKEYKCKVSNKGLPSSIEKTISKAKGQPREPQVYTLPPSQEEMTKNQVSLTCLVKGFYPSDIAVEWESNGQPENNYKTTPPVLDSDGSFFLYSRLTVDKSRWQEGNVFSCSVMHEALHNHYTQKSLSLSLG

One experiment addresses human GLP-1 receptor (human, UniProt P43220 24-463). As to the kind of experiment: cell-based or functional assay.
Take B1: the “GLP-1R agonist activity EC50 (luciferase reporter)” value (from here on “GLP-1R agonist activity EC50”) came out at 18.5 nM.

B2: the “GLP-1R agonist activity EC50” value worked out at 1.41 nM.

Regarding B3, the “GLP-1R agonist activity EC50” value stood at 1.47 nM.

A further experiment deals with Glucagon receptor. Description: cell-based or functional assay.
As to B1, the “GCGR agonist activity EC50 (luciferase reporter)” value (“GCGR agonist activity EC50” for short) turned out to be 26.7 nM.

As to B2, the “GCGR agonist activity EC50” value amounted to 1.27 nM.

With B3, the “GCGR agonist activity EC50” value was 1.39 nM.
